Experimental findings from paper PMC6735679 are described below.

Data set [1] concerns the target T1, CNBP (Homo sapiens, UniProt P62633 1-177). In words: EMSA. A general note: Mobility shift assays separate free from complexed probe on a gel.
The target in data set [2] is T1, CNBP. The experiment in a line: EMSA. This is another data set of the same source.

Read-outs that look alike come from different tables or passages of the source.

T1 sequence (P62633 whole entry): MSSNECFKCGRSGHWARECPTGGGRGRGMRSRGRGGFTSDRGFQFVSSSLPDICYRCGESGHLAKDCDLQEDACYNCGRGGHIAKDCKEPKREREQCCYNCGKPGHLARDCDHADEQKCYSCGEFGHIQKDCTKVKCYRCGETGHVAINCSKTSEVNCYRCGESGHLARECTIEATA

B1: C14 (ssDNA)
DNA: GAGGGGGAGGGGGG
For B1, the binding result in data set [1] was “binds”.

B2: TG4T (single strand) (ssDNA)
DNA: TGGGGT
For the molecule B2, the binding result in data set [2] is “no binding”.
